Assays:
[1] = target: recombinant soluble homotrimeric HA of A/Egypt/3300-NAMRU3/08 (H5N1) (Influenza A virus …); assay: HA microarray, BCC supernatant
[2] = target: recombinant soluble homotrimeric HA of A/Netherlands/219/03 (H7N7) (Influenza A virus …); assay: HA microarray, BCC supernatant
[3] = target: recombinant soluble homotrimeric HA of A/Wisconsin/67/05 (H3N2) (Influenza A virus …); assay: HA microarray, BCC supernatant
[4] = target: recombinant soluble homotrimeric HA of A/Hong Kong/2108/03 (H9N2) (Influenza A virus A/HK/2108/2003(H9N2)); assay: HA microarray, BCC supernatant
[5] = target: recombinant soluble homotrimeric HA of A/Solomon Islands/3/06 (H1N1) (Influenza A virus A/Solomon …); assay: HA microarray, BCC supernatant
[6] = target: recombinant soluble homotrimeric HA of A/Vietnam/1203/04 (H5N1) (Influenza A virus …); assay: HA microarray, BCC supernatant
[7] = target: recombinant soluble homotrimeric HA of A/Anhui/1/05 (H5N1) (Influenza A virus A/Anhui/1/2005(H5N1)); assay: HA microarray, BCC supernatant
[8] = target: recombinant soluble homotrimeric HA of A/swine/Ontario/01911-2/99 (H4N6) (Influenza A virus …); assay: HA microarray, BCC supernatant
[9] = target: recombinant soluble homotrimeric HA of A/Japan/305/57 (H2N2) (Influenza A virus A/Japan/305/1957(H2N2)); assay: HA microarray, BCC supernatant
[10] = target: recombinant soluble homotrimeric HA of A/duck/Yangzhou/02/05 (H8N4) (Influenza A virus …); assay: HA microarray, BCC supernatant
[11] = target: recombinant soluble homotrimeric HA of A/northern shoveler/California/HKWF115/07 (H6) (Influenza A virus A/northern …); assay: HA microarray, BCC supernatant
[12] = target: recombinant soluble homotrimeric HA of A/California/4/09 (H1N1) (Influenza A virus …); assay: HA microarray, BCC supernatant
[13] = target: recombinant soluble homotrimeric HA of A/chicken/Vietnam/NCVD-016/08 (H5N1) (Influenza A virus …); assay: HA microarray, BCC supernatant
[14] = target: recombinant soluble homotrimeric HA of A/Indonesia/5/05 (H5N1) (Influenza A virus …); assay: HA microarray, BCC supernatant
[15] = target: T1, hemagglutinin (HA) of influenza A/Japan/305/57 (H2N2) on whole virions (Influenza A virus A/Japan/305/1957(H2N2), UniProt P03451 16-562); assay: ELISA; BCC supernatant on coated inactivated whole virions
[16] = target: T1, hemagglutinin (HA) of influenza …; assay: ELISA, purified IgG on inactivated whole virions
[17] = target: recombinant homotrimeric HA A/Egypt/3300-NAMRU3/08 H5N1 (Influenza A virus …); assay: protein microarray, purified IgG, trimeric HA
[18] = target: recombinant homotrimeric HA A/duck/Yangzhou/02/05 H8N4 (Influenza A virus …); assay: protein microarray, purified IgG, trimeric HA
[19] = target: recombinant homotrimeric HA A/Wisconsin/67/05 H3N2 (Influenza A virus …); assay: protein microarray, purified IgG, trimeric HA
[20] = target: recombinant homotrimeric HA A/northern shoveler/California/HKWF115/07 H6N4 (Influenza A virus A/northern …); assay: protein microarray, purified IgG, trimeric HA
[21] = target: recombinant homotrimeric HA A/Indonesia/5/05 H5N1 (Influenza A virus …); assay: protein microarray, purified IgG, trimeric HA
[22] = target: recombinant homotrimeric HA A/Hong Kong/156/97 H5N1 (Influenza A virus A/Hong Kong/156/97 …); assay: protein microarray, purified IgG, trimeric HA
[23] = target: recombinant homotrimeric HA A/chicken/Vietnam/NCVD-016/08 H5N1 (Influenza A virus …); assay: protein microarray, purified IgG, trimeric HA
[24] = target: recombinant homotrimeric HA A/Vietnam/1203/04 H5N1 (Influenza A virus …); assay: protein microarray, purified IgG, trimeric HA
[25] = target: recombinant homotrimeric HA A/Hong Kong/1073/99 H9N2 (Influenza A virus A/Hong Kong/1073/99 …); assay: protein microarray, purified IgG, trimeric HA
[26] = target: recombinant homotrimeric HA A/South Carolina/1/18 H1N1 (Influenza A virus A/South Carolina/1/18 …); assay: protein microarray, purified IgG, trimeric HA
[27] = target: recombinant homotrimeric HA A/Japan/305/57 H2N2 (Influenza A virus A/Japan/305/1957(H2N2)); assay: protein microarray, purified IgG, trimeric HA
[28] = target: recombinant homotrimeric HA A/California/4/09 H1N1 (Influenza A virus …); assay: protein microarray, purified IgG, trimeric HA
[29] = target: recombinant homotrimeric HA A/Anhui/1/05 H5N1 (Influenza A virus A/Anhui/1/2005(H5N1)); assay: protein microarray, purified IgG, trimeric HA
[30] = target: recombinant homotrimeric HA A/Hong Kong/2108/03 H9N2 (Influenza A virus A/HK/2108/2003(H9N2)); assay: protein microarray, purified IgG, trimeric HA
[31] = target: recombinant homotrimeric HA A/Netherlands/219/03 H7N7 (Influenza A virus …); assay: protein microarray, purified IgG, trimeric HA
[32] = target: recombinant homotrimeric HA A/swine/Ontario/01911-2/99 H4N6 (Influenza A virus …); assay: protein microarray, purified IgG, trimeric HA
[33] = target: recombinant homotrimeric HA A/Solomon Islands/3/06 H1N1 (Influenza A virus A/Solomon …); assay: protein microarray, purified IgG, trimeric HA

B1: TCN-533 (5256_A17a) (antibody, V domains shown)
VH: QVQLVQSGADVKKPGSSVTVSCKASGGSFSNYGINWVRQAPGQGLEWMGGIIPLINAPNYAPKFQGRVTITADMFSNIVSLQLTSLRTDDTAVYYCARRKMTTAIDYWGQGTLVTVSS
VL: QPVLTQPPSASASLGASVTLTCTLSSAYSNYKVDWYQQRPGKGPRFVMRVGTGGIVGSKGDGIPDRFSVLGSGLNRYLTIKNIQEEDESDYHCGADHGSGSNFVSPYVFGGGTKLTVL
Trimeric HA Binding: RLU [1]: 34300 RLU
Trimeric HA Binding: RLU [2]: 2470 RLU
Trimeric HA Binding: RLU [3]: 13800 RLU
Trimeric HA Binding: RLU [4]: 172 RLU
Trimeric HA Binding: RLU [5]: 39200 RLU
Trimeric HA Binding: RLU [6]: 5680 RLU
Trimeric HA Binding: RLU [7]: 8060 RLU
Trimeric HA Binding: RLU [8]: 1580 RLU
Trimeric HA Binding: RLU [9]: 10800 RLU
Trimeric HA Binding: RLU [10]: 24700 RLU
Trimeric HA Binding: RLU [11]: 41400 RLU
Trimeric HA Binding: RLU [12]: 29300 RLU
Trimeric HA Binding: RLU [13]: 47700 RLU
Trimeric HA Binding: RLU [14]: 44100 RLU

B2: TCN-532 (5262_H18) (antibody, V domains shown)
VH: QVQLQESGPGLVKPSETLSLTCTVSGGSVSSETYYWSWIRQPPGKGLEWIGYIYYIGNTDYRPSLKSRVTISLDTSKNQFSLKLSSVTAADTAVYYCARGAYYDSSGYPAFYIWGQGTMVTVSS
VL: QSVLTQPPSVSGAPGQRVTISCTGSSSNIGSDYDVHWYKQLPGTAPKLLIFGNSNRPSGVPDRFSGSKSGTSASLAITGLQAEDEADYYCQSYDSSLSGFHVFGSGTKVTVL
ELISA virus binding (OD450) [15]: 0.07 OD450
binding result [16]: no binding

B3: TCN-556 (5089_K12) (antibody, V domains shown)
VH: QVQLVQSGAEVKKPGASVKVSCKASGYTFIGYDMHWVRQAPGQGLEWMGWINAKRGGTNYAQKFQGRVTMTRDTSISTAYMELNSLRSDDTAVYYCARGVGSRTTIFGVLNPEFDYWGQGTLVTVSS
VL: QSALTQPPSASGSPGQSVTISCTGSSSDVGGYDYVSWYQQHPGKAPKLLIYEVTKRPSGVPDRFSGSKSGNTASLTVSGLQAEDEADYYCSSYAGNYNHVFGPGTKVTVL
Trimeric HA Binding: RLU [17]: 24800 RLU
Trimeric HA Binding: RLU [18]: 18300 RLU
Trimeric HA Binding: RLU [19]: 2360 RLU
Trimeric HA Binding: RLU [20]: 25000 RLU
Trimeric HA Binding: RLU [21]: 23000 RLU
Trimeric HA Binding: RLU [22]: 18600 RLU
Trimeric HA Binding: RLU [23]: 22400 RLU
Trimeric HA Binding: RLU [24]: 21500 RLU
Trimeric HA Binding: RLU [25]: 995 RLU
Trimeric HA Binding: RLU [26]: 21000 RLU
Trimeric HA Binding: RLU [27]: 25800 RLU
Trimeric HA Binding: RLU [28]: 25800 RLU
Trimeric HA Binding: RLU [29]: 26900 RLU
Trimeric HA Binding: RLU [30]: 25600 RLU
Trimeric HA Binding: RLU [31]: 21000 RLU
Trimeric HA Binding: RLU [32]: 24100 RLU
Trimeric HA Binding: RLU [33]: 24300 RLU

Reference: patent publication US20150086555A1 (THERACLONE SCIENCES, published 2015)
